Reference: patent US20260062447A1, “COMPOUNDS” (UNIVERSITY OF SOUTHAMPTON, priority 2022, published 2026)
Values belong to the substance of their own block, whether it stands above or below them.

Legend:
HIF-1α PAS-B domain [1] = target: HIF-1α PAS-B domain (UniProt Q16665); experiment: MST (microscale thermophoresis), labelled HIF-1α PAS-B [part 1 of 4) B]
HIF-1α PAS-B domain [2] = target: HIF-1α PAS-B domain (UniProt Q16665); experiment: MST (microscale thermophoresis), labelled HIF-1α PAS-B [part 4 of 4]
HIF-1α PAS-B domain [3] = target: HIF-1α PAS-B domain (UniProt Q16665); experiment: MST (microscale thermophoresis), labelled HIF-1α PAS-B [part 2 of 4]
HIF-1α PAS-B domain [4] = target: HIF-1α PAS-B domain (UniProt Q16665); experiment: MST (microscale thermophoresis), labelled HIF-1α PAS-B [part 3 of 4]
HIF-1α PAS-B domain [5] = target: HIF-1α PAS-B domain (UniProt Q16665); experiment: MST (microscale thermophoresis), labelled HIF-1α PAS-B [part 3 of 14) B]
His-HIF-1α PAS-B domain = His-HIF-1α PAS-B domain (UniProt Q16665); experiment: competition ELISA: inhibition of FLAG-HIF-1β PAS-B binding to plate-bound His-HIF-1α PAS-B
HIF-1α PAS-B domain [6] = target: HIF-1α PAS-B domain (UniProt Q16665); experiment: MST

HIF-1α PAS-B domain, sequence (Q16665 238-349 limits assumed): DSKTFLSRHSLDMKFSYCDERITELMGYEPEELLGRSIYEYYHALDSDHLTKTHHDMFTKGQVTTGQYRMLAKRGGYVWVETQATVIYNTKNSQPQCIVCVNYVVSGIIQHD
His-HIF-1α PAS-B domain, sequence (Q16665 238-349 limits assumed): as above

Substance: Cyclo-CL-Aib-F(CF3)IF(Br) (peptide)
- EC50 (read off the curve) (HIF-1α PAS-B domain [1]): 2 µM

Substance: Cyclo-CLLF(CF3)-Aib-F(Br) (peptide)
- Kd (HIF-1α PAS-B domain [4]): 1.92 µM

Substance: Cyclo-CLLF(CF3)-NL-F(Br) (peptide)
- Kd (HIF-1α PAS-B domain [2]): 1.03 µM

Substance: Cyclo-CLLF(CF3)-NV-F(Br) (peptide)
- Kd (HIF-1α PAS-B domain [3]): 22.4 µM

Substance: Cyclo-CLLF(CF3)-Prop-F(Br) (peptide)
- Kd (HIF-1α PAS-B domain [3]): 1.16 µM

Substance: Cyclo-CLLF(CF3)-hL-F(Br) (Cys leu leu phe(CF3) h-leu phe(4-Br)) (peptide)
- Kd (HIF-1α PAS-B domain [2]): 0.735 µM

Second part, the substance after the results:

- EC50 (read off the curve) (HIF-1α PAS-B domain [2]): 0.5 µM
Substance: Cyclo-CL-NL-F(CF3)IF(Br) (Cys leu n-leu phe(CF3) ile phe(4-Br)) (peptide)

- EC50 (read off the curve) (HIF-1α PAS-B domain [3]): 0.6 µM
Substance: Cyclo-CL-NV-F(CF3)IF(Br) (peptide)

- EC50 (read off the curve) (HIF-1α PAS-B domain [4]): 1 µM
Substance: Cyclo-CL-Prop-F(CF3)IF(Br) (peptide)

- EC50 (read off the curve) (HIF-1α PAS-B domain [4]): 0.7 µM
Substance: Cyclo-CL-hL-F(CF3)IF(Br) (peptide)

- Kd (HIF-1α PAS-B domain [5]): > 200 µM
Substance: Cyclo-CLLY(Me)VY (peptide)

- IC50 (His-HIF-1α PAS-B domain): 27.7 µM
- Kd (HIF-1α PAS-B domain [6]): 1.66 µM
Substance: cyclo-CK-NL-F(CF3)IF(Br) (Cys lys n-leu phe(CF3) ile phe(4-Br)) (peptide)
